T1: B3GNT2 (Homo sapiens, UniProt Q9NY97)
T1 construct: The respective ORFs of candidate genes [CD274 (NM_014143), MCL1 (NM_021960), JUNB (NM_002229), and B3GNT2 (NM_006577)] were synthesized; expressed in transfected cells; host or cells: A375 melanoma cells (lentiviral ORF overexpression)
T1 sequence (Q9NY97 1-397): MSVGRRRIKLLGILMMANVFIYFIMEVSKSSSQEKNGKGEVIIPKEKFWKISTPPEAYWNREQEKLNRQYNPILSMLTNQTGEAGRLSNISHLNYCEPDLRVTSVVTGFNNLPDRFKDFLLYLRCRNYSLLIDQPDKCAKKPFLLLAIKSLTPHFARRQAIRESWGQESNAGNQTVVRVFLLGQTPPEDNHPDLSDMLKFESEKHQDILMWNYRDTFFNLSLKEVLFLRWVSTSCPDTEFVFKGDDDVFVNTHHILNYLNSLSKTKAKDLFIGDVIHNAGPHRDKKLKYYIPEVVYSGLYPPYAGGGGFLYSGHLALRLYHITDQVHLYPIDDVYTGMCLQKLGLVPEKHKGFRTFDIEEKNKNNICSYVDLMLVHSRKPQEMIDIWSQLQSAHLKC

B1: CAT (protein)
chain: ADSRDPASDQMQHWKEQRAAQKADVLTTGAGNPVGDKLNVITVGPRGPLLVQDVVFTDEMAHFDRERIPERVVHAKGAGAFGYFEVTHDITKYSKAKVFEHIGKKTPIAVRFSTVAGESGSADTVRDPRGFAVKFYTEDGNWDLVGNNTPIFFIRDPILFPSFIHSQKRNPQTHLKDPDMVWDFWSLRPESLHQVSFLFSDRGIPDGHRHMNGYGSHTFKLVNANGEAVYCKFHYKTDQGIKNLSVEDAARLSQEDPDYGIRDLFNAIATGKYPSWTFYIQVMTFNQAETFPFNPFDLTKVWPHKDYPLIPVGKLVLNRNPVNYFAEVEQIAFDPSNMPPGIEASPDKMLQGRLFAYPDTHRHRLGPNYLHIPVNCPYRARVANYQRDGPMCMQDNQGGAPNYYPNSFGAPEQQPSALEHSIQYSGEVRRFNTANDDNVTQVRAFYVNVLNEEQRKRLCENIAGHLKDAQIFIQKKAVKNFTEVHPDYGSHIQALLDKYNAEKPKNAIHTFVQSGSHLAAREKANL
B2: KRT6B (protein)
chain: ASTSTTIRSHSSSRRGFSANSARLPGVSRSGFSSISVSRSRGSGGLGGACGGAGFGSRSLYGLGGSKRISIGGGSCAISGGYGSRAGGSYGFGGAGSGFGFGGGAGIGFGLGGGAGLAGGFGGPGFPVCPPGGIQEVTVNQSLLTPLNLQIDPAIQRVRAEEREQIKTLNNKFASFIDKVRFLEQQNKVLDTKWTLLQEQGTKTVRQNLEPLFEQYINNLRRQLDNIVGERGRLDSELRNMQDLVEDLKNKYEDEINKRTAAENEFVTLKKDVDAAYMNKVELQAKADTLTDEINFLRALYDAELSQMQTHISDTSVVLSMDNNRNLDLDSIIAEVKAQYEEIAQRSRAEAESWYQTKYEELQITAGRHGDDLRNTKQEIAEINRMIQRLRSEIDHVKKQCANLQAAIADAEQRGEMALKDAKNKLEGLEDALQKAKQDLARLLKEYQELMNVKLALDVEIATYRKLLEGEECRLNGEGVGQVNISVVQSTVSSGYGGASGVGSGLGLGGGSSYSYGSGLGVGGGFSSSSGRATGGGLSSVGGGSSTIKYTTTSSSSRKSYKH
B3: SLC25A6 (protein)
chain: MTEQAISFAKDFLAGGIAAAISKTAVAPIERVKLLLQVQHASKQIAADKQYKGIVDCIVRIPKEQGVLSFWRGNLANVIRYFPTQALNFAFKDKYKQIFLGGVDKHTQFWRYFAGNLASGGAAGATSLCFVYPLDFARTRLAADVGKSGTEREFRGLGDCLVKITKSDGIRGLYQGFSVSVQGIIIYRAAYFGVYDTAKGMLPDPKNTHIVVSWMIAQTVTAVAGVVSYPFDTVRRRMMMQSGRKGADIMYTGTVDCWRKIFRDEGGKAFFKGAWSNVLRGMGGAFVLVLYDELKKVI
B4: ATXN2 (protein)
chain: MRSAAAAPRSPAVATESRRFAAARWPGWRSLQRPARRSGRGGGGAAPGPYPSAAPPPPGPGPPPSRQSSPPSASDCFGSNGNGGGAFRPGSRRLLGLGGPPRPFVVLLLPLASPGAPPAAPTRASPLGARASPPRSGVSLARPAPGCPRPACEPVYGPLTMSLKPQQQQQQQQQQQQQQQQQQQQQQQPPPAAANVRKPGGSGLLASPAAAPSPSSSSVSSSSATAPSSVVAATSGGGRPGLGRGRNSNKGLPQSTISFDGIYANMRMVHILTSVVGSKCEVQVKNGGIYEGVFKTYSPKCDLVLDAAHEKSTESSSGPKREEIMESILFKCSDFVVVQFKDMDSSYAKRDAFTDSAISAKVNGEHKEKDLEPWDAGELTANEELEALENDVSNGWDPNDMFRYNEENYGVVSTYDSSLSSYTVPLERDNSEEFLKREARANQLAEEIESSAQYKARVALENDDRSEEEKYTAVQRNSSEREGHSINTRENKYIPPGQRNREVISWGSGRQNSPRMGQPGSGSMPSRSTSHTSDFNPNSGSDQRVVNGGVPWPSPCPSPSSRPPSRYQSGPNSLPPRAATPTRPPSRPPSRPSRPPSHPSAHGSPAPVSTMPKRMSSEGPPRMSPKAQRHPRNHRVSAGRGSISSGLEFVSHNPPSEAATPPVARTSPSGGTWSSVVSGVPRLSPKTHRPRSPRQNSIGNTPSGPVLASPQAGIIPTEAVAMPIPAASPTPASPASNRAVTPSSEAKDSRLQDQRQNSPAGNKENIKPNETSPSFSKAENKGISPVVSEHRKQIDDLKKFKNDFRLQPSSTSESMDQLLNKNREGEKSRDLIKDKIEPSAKDSFIENSSSNCTSGSSKPNSPSISPSILSNTEHKRGPEVTSQGVQTSSPACKQEKDDKEEKKDAAEQVRKSTLNPNAKEFNPRSFSQPKPSTTPTSPRPQAQPSPSMVGHQQPTPVYTQPVCFAPNMMYPVPVSPGVQPLYPIPMTPMPVNQAKTYRAVPNMPQQRQDQHHQSAMMHPASAAGPPIAATPPAYSTQYVAYSPQQFPNQPLVQHVPHYQSQHPHVYSPVIQGNARMMAPPTHAQPGLVSSSATQYGAHEQTHAMYACPKLPYNKETSPSFYFAISTGSLAQQYAHPNATLHPHTPHPQPSATPTGQQQSQHGGSHPAPSPVQHHQHQAAQALHLASPQQQSAIYHAGLAPTPPSMTPASNTQSPQNSFPAAQQTVFTIHPSHVQPAYTNPPHMAHVPQAHVQSGMVPSHPTAHAPMMLMTTQPPGGPQAALAQSALQPIPVSTTAHFPYMTHPSVQAHHQQQL
B5: DNAJC3 (protein)
chain: GVNADVEKHLELGKKLLAAGQLADALSQFHAAVDGDPDNYIAYYRRATVFLAMGKSKAALPDLTKVIQLKMDFTAARLQRGHLLLKQGKLDEAEDDFKKVLKSNPSENEEKEAQSQLIKSDEMQRLRSQALNAFGSGDYTAAIAFLDKILEVCVWDAELRELRAECFIKEGEPRKAISDLKAASKLKNDNTEAFYKISTLYYQLGDHELSLSEVRECLKLDQDHKRCFAHYKQVKKLNKLIESAEELIRDGRYTDATSKYESVMKTEPSIAEYTVRSKERICHCFSKDEKPVEAIRVCSEVLQMEPDNVNALKDRAEAYLIEEMYDEAIQDYETAQEHNENDQQIREGLEKAQRLLKQSQKRDYYKILGVKRNAKKQEIIKAYRKLALQWHPDNFQNEEEKKKAEKKFIDIAAAKEVLSDPEMRKKFDDGEDPLDAESQQGGGGNPFHRSWNSWQGFNPFSSGGPFRFKFHFN
B6: LSM12 (protein)
chain: AAPPGEYFSVGSQVSCRTCQEQRLQGEVVAFDYQSKMLALKCPSSSGKPNHADILLINLQYVSEVEIINDRTETPPPLASLNVSKLASKARTEKEEKLSQAYAISAGVSLEGQQLFQTIHKTIKDCKWQEKNIVVMEEVVITPPYQVENCKGKEGSALSHVRKIVEKHFRDVESQKILQRSQAQQPQKEAALSS
B7: MOV10 (protein)
chain: MPSKFSCRKLRETGQRFESFLAERGLDLETDRERLRTIYNHDFKPSYGTPAPGFSSMLYGMKIANLAFVTKTRVRFFKLDRWADVQLPEKRRIKPGSNISKQHRSLLARIFHDRAEYLHGKHGVDVEVQGPHEARDGQLLIHLDLNRKEVLTLRLRNGGSKPVTLTHLFPLCWTPQFVFYHGEQDLPCPLGPGESYELHIYCKTSIVGYFPATVLWELLGPGESGAEGAETFYIARFLAAVAHSPLAAQLKPTTPFKRPPRLTRNSVLTNRIEEGERPDRAKGYELELSLALGTYYPPILLRQLLPTLLQGPSIFTAPKEVAEIKAQLETTLKSRNYEVKLRLLLHLEELQMEHDIRHYDLDSVPMTWDPVDQNPRLLTLEVPGVAESRPSVLRGDHLFALLSSETQQDDPVTYKGFVHKVELDRVKLSFSTSLLSRFVDGLTFKVNFTFNRQPLRVQHRALELTGRWVLWPMLFPVASRGVSLLPSDVKFKLYDRSLESNPEQLQAMKHIVRGTTRPAPYIIFGPPGTGKTVTLVEAIKQVVKHLPKAHILACAPSNSGADLLCQRLRVHLPSSIYRLLAPSRDIRMVPEDIKTCCNWDAKKGEYVYPAKKHLQQYRVLITTLITASRLVSAQFPIDHFTHIFIDEAGHCMEPESLVAIAGLMDVKETGNPGGQLVLAGDPRQLGPVLRSPLALKHGLGYSLLERLLAYNSLYKKGPNGYDPQFITKLLRNYRSHPTILDIPNQLYYDGELQACADVVDRERFCRWEGLPQQGFPIIFHGVMGKDEREGNSPSFFNPEEAATVTSYLKQLLAPSSKKGKARLSPRNVGVISPYRKQVEKIRYCITKLDRELRGLDDIKDLKVGSVEEFQGQERSVILISTVRSSQSFVQLDLDFNLGFLKNPKRFNVAVTRAKALLIVVGNPLLLGHDPDWKTFLEFCKENGGYTGCPFPAKLDLQQGQDLLQGLSKLSPSTSGPRRHQNLPQEREGEGGLPLQVEPEWRNEL

Target: T1, B3GNT2
Assay: Co-IP of FLAG-tagged B3GNT2 followed by mass spectrometry
Format: cell-based
Parameters: C-term IgG / C-term flag: unit not given here
Procedure, shortened: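 FLAG-tagged B3GNT2 immunoprecipitated from cell lysate (HEPES, 1% Triton X-100, 150 mM NaCl) with anti-FLAG versus […], overnight at 4° C, then captured on Protein A/G magnetic beads for 4 h. Two biological replicates per condition. Peptides fractionated and analyzed by nano-LC on an Orbitrap Elite in data-dependent mode.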

[1] = Co-IP followed by mass spectrometry of B3GNT2, C-term tag, FLAG pull-down
[2] = Co-IP followed by mass spectrometry of B3GNT2, C-term tag, IgG pull-down
[3] = Co-IP followed by mass spectrometry of B3GNT2, N-term tag, FLAG pull-down
[4] = Co-IP followed by mass spectrometry of B3GNT2, N-term tag, IgG pull-down

Row | Molecule | C-term flag [1] | C-term IgG [2] | N-term FLAG [3] | N-term IgG [4] | C-term flag (Co-IP with FLAG antibody, C-terminally FLAG-tagged B3GNT2, mass spectrometry count, unit not given) | N-term FLAG (Co-IP with FLAG antibody, N-terminally FLAG-tagged B3GNT2, mass spectrometry count, unit not given) | C-term IgG (Co-IP with IgG control antibody, C-terminally FLAG-tagged B3GNT2, mass spectrometry count, unit not given) | N-term IgG (Co-IP with IgG control antibody, N-terminally FLAG-tagged B3GNT2, mass spectrometry count, unit not given)
1 | B1 | 0 | 3 | 6 | 2 | – | – | – | –
2 | B2 | 331 | 295 | 370 | 316 | – | – | – | –
3 | B3 | – | – | – | – | 19 | 15 | 0 | 0
4 | B4 | 3 | 3 | 4 | 3 | – | – | – | –
5 | B5 | 3 | 0 | 0 | 0 | – | – | – | –
6 | B6 | 4 | 0 | 4 | 2 | – | – | – | –
7 | B7 | 3 | 3 | 4 | 3 | – | – | – | –
